Molecular target: cSH2 domain of PLCγ (isolated, solution experiments)
Assay: NMR titration

B1: activated FGFR2 kinase, mono-phosphorylated on Tyr-769 (FGFR2K^pY769) (domain or fragment)
chain: MGSSHHHHHHSQDPMLAGVSEFELPEDPKWEFPRDKLTLGKPLGEGAFGQVVMAEAVGIDKDKPKEAVTVAVKMLKDDATEKDLSDLVSEMEMMKMIGKHKNIINLLGACTQDGPLYVIVAYASKGNLREYLRARRPPGMELSPDINRVPEEQMTFKDLVSCTYQLARGMEYLASQKCIHRDLAARNVLVTENNVMKIADFGLARDINNIDFFKETTNGRLPVKWMAPEALFDRVYTHQSDVWSFGVLMWEIFTLGGSPYPGIPVEELFKLLKEGHRMDKPANCTNELYMMMRDCWHAVPSQRPTFKQLVEDLDRILTLTTNEEYLDLSQPLEQ
modifications: phosphotyrosine at 769
stoichiometry N: 1 FGFR2K^pY769 per cSH2

Source: publication PMC4838190 (Molecular cell, 2015)
